This is an account of results in patent US20260308278 (published 2026).

Test [1] has as its target T1, human C3bBb (Bb from FB D279G/K350N/M458I) (human). The experiment in a line: SPR, 37C. (In general: SPR reads the build-up and loss of mass on a sensor chip optically.)
Test [2] addresses T1, human C3bBb (Bb from FB …). The experiment in a line: SPR, 25C.
A further test addresses scFcRn (human, UniProt P55899). The experiment in a line: SPR, pH 6.0, 25C.

scFcRn, sequence (P55899 24-297, chain 1 of 2): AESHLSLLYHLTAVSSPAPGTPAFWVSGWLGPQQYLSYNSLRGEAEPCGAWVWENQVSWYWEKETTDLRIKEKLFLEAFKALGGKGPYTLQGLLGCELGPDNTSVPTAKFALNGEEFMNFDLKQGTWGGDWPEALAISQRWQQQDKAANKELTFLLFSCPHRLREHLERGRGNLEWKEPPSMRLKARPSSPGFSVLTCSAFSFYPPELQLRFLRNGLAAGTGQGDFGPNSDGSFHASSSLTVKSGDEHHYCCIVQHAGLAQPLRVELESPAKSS
scFcRn, sequence (chain, as listed by the source, chain 2 of 2): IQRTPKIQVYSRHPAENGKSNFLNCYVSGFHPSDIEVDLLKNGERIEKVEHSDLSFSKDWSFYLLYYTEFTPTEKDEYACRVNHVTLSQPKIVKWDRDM
T1 sequence (P01024 23-1663, chain 1 of 2): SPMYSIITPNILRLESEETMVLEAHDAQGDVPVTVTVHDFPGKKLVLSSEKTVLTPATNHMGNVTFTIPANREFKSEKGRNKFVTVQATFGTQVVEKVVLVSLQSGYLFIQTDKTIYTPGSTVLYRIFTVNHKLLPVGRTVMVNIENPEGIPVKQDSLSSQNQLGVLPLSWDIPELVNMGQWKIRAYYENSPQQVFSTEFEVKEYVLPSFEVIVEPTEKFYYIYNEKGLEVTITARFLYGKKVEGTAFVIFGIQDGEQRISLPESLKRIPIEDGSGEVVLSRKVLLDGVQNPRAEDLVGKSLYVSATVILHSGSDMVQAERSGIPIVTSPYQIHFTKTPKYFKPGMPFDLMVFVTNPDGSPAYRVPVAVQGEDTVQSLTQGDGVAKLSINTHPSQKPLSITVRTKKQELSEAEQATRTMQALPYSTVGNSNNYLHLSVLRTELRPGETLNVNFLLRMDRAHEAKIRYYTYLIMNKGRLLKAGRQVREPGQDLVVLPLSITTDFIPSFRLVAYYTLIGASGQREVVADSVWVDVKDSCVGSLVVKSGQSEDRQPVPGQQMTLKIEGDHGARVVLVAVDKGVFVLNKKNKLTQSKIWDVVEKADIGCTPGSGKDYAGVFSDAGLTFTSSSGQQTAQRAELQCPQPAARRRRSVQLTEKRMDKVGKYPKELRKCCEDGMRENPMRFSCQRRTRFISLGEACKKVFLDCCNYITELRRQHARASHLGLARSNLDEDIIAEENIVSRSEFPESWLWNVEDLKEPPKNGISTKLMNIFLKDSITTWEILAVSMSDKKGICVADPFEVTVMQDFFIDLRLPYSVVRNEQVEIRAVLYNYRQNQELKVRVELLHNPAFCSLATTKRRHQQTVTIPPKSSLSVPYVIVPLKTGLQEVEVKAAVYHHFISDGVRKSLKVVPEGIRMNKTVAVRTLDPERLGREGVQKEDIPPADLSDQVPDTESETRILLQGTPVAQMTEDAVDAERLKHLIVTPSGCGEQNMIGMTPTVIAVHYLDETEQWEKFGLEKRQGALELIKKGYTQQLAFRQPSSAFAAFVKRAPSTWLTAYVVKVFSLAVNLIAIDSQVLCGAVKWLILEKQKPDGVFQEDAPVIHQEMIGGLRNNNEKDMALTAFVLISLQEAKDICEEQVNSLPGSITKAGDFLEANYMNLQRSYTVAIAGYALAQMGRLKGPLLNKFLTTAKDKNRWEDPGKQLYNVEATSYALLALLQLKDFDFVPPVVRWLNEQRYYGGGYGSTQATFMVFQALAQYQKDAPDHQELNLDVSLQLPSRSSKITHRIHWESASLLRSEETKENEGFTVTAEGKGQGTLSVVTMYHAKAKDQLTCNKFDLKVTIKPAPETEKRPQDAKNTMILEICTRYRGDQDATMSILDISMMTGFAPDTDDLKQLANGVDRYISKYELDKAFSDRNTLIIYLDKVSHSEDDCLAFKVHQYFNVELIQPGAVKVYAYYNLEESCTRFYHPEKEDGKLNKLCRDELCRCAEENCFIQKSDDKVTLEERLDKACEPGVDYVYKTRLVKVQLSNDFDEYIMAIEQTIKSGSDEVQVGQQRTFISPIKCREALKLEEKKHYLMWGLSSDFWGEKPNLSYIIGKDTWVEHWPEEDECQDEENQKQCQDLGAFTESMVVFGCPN
T1 sequence (P00751 260-764 D279G/K350N/M458I, chain 2 of 2, further chain): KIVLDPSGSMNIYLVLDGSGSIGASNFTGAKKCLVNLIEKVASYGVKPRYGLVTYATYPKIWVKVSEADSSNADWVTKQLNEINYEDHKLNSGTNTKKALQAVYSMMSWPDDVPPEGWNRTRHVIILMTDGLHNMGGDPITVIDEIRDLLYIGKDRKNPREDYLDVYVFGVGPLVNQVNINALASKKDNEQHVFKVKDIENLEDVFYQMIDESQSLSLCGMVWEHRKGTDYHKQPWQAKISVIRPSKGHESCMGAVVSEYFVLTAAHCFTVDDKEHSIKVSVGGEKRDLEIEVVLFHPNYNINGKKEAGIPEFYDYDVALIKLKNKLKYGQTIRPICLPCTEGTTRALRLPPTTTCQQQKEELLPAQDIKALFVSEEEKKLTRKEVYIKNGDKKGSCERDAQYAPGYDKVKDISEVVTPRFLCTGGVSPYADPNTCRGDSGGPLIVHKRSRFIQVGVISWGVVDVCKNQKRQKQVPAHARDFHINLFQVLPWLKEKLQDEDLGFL

B1: P1AH1205 (antibody, V domains shown)
VH: KVQLVESGGGLVQPGGSLRLSCAASGFKWEHYAMSWVRQAPGKGLEWVGSISPRGDHKYYNTKFIDRFTISRDNDKNTLYLQMNSLRAEDTAVYYCARDWDYFDRWGQGTLVTVSS
VL: AIQMTQSPSSLSASVGDRVTITCQSQFWLSNYLAWYQQKPGKAPKLLIFDGDLPYERPSRFSGSGSHDEYTLTISSLQPEDFATYYCQQYREEPYTFGQGTKLEIK
A word on the Kd: it is the constant that tells how readily two partners part at equilibrium. A lower Kd goes with tighter binding. For B1, the Kd turned out to be 0.095 nM in test [1] and 0.016 nM in test [2].

B2: P1AH1199 (antibody, V domains shown)
VH: QVQLVESGGGLVQPGGSLRLSCAASGFKYDVYAMSWVRQAPGKGLEWVGEISPRGDSKYYNTKFIDRFTISRDNEKNTLYLQMNSLRAEDTAVYYCARDWEYFDNWGQGTLVTVSS
VL: AIQMTQSPSSLSASVGDRVTITCQASYWLSNYLAWYQQKPGKAPKLLIFDGDIPWEIPSRFSGSGSHEEYTLTISSLQPEDFATYYCQQYRDTPYTFGQGTKLEIK
On to B2, for which the figures for the dissociation constant Kd in test [1] and in test [2] were 0.2 nM and 0.03 nM, respectively.

B3: P1AG9420 (antibody, V domains shown)
VH: RVQLVESGGGLVQPGGSLRLSCAASGFRYDHYAMSWVRQAPGKGLEWVGSISPRGNHKYYNTKFIDRFTISRDDEKNTLYLQMNSLRAEDTAVYYCARDWDYFDHWGQGTLVTVSS
VL: AIQMTQSPSSLSASVGDRVTITCQASYWLSNYLAWYQQKPGKAPKLLIFDGDIPYEIPSRFSGSGSHEEYTLTISSLQPEDFATYYCQQYRETPYTFGQGTKLEIK
Regarding B3, the Kd is 0.011 nM in test [1] and under 0.001 nM in test [2].

B4: P1AG9376 (antibody, V domains shown)
VH: KVQLVESGGGLVQPGGSLRLSCAASGFKWEHYAMSWVRQAPGKGLEWVGSISPRGDHKYYNTKFIDRFTISRDNDKNTLYLQMNSLRAEDTAVYYCARDWDYFDRWGQGTLVTVSS
VL: AIQMTQSPSSLSASVGDRVTITCQSQFWLSNYLAWYQQKPGKAPKLLIFDGDLPYERPSRFSGSGSHDEYTLTISSLQPEDFATYYCQQYREEPYTFGQGTKLEIK
B4: the dissociation constant Kd in test [1] and in test [2] was under 0.001 nM throughout.

B5: P1AG9372 (antibody, V domains shown)
VH: EVQLVESGGGLVQPGGSLRLSCAASGFRFDIYAMSWVRQAPGKGLEWVGEISPDGRTKYYNTKFIDRFTISRDNEKNTLYLQMNSLRAEDTAVYYCARDWEYFDNWGQGTLVTVSS
VL: AIQMTQSPSSLSASVGDRVTITCQSQFWLSNYLAWYQQKPGKAPKLLIFDGDLPYERPSRFSGSGSHDEYTLTISSLQPEDFATYYCQQYREEPYTFGQGTKLEIK
Turning to B5, the equilibrium dissociation constant (Kd) in test [1] was 0.0116 nM; in test [2], under 0.001 nM.

B6: P1AG9391 (antibody, V domains shown)
VH: QVQLVESGGGLVQPGGSLRLSCAASGFKYDVYAMSWVRQAPGKGLEWVGEISPRGDSKYYNTKFIDRFTISRDNEKNTLYLQMNSLRAEDTAVYYCARDWEYFDNWGQGTLVTVSS
VL: AIQMTQSPSSLSASVGDRVTITCQASYWLSNYLAWYQQKPGKAPKLLIFDGDIPWEIPSRFSGSGSHEEYTLTISSLQPEDFATYYCQQYRDTPYTFGQGTKLEIK
B6: the dissociation constant Kd is 0.0016 nM in test [1] and under 0.001 nM in test [2].

B7: P1AG9426 (antibody, V domains shown)
VH: QVQLVESGGGLVQPGGSLRLSCAASGFKYDVYAMSWVRQAPGKGLEWVGEISPRGDSKYYNTKFIDRFTISRDNEKNTLYLQMNSLRAEDTAVYYCARDWEYFDNWGQGTLVTVSS
VL: AIQMTQSPSSLSASVGDRVTITCQASYWLSNYLAWYQQKPGKAPKLLIFDGDIPYEIPSRFSGSGSHEEYTLTISSLQPEDFATYYCQQYRETPYTFGQGTKLEIK
Regarding B7, the Kd in test [1] was 0.014 nM; in test [2], under 0.001 nM.

B8: P1AH1205 full Fab (antibody)
chain 1: KVQLVESGGGLVQPGGSLRLSCAASGFKWEHYAMSWVRQAPGKGLEWVGSISPRGDHKYYNTKFIDRFTISRDNDKNTLYLQMNSLRAEDTAVYYCARDWDYFDRWGQGTLVTVSSASTKGPSVFPLAPSSKSTSGGTAALGCLVKDYFPEPVTVSWNSGALTSGVHTFPAVLQSSGLYSLSSVVTVPSSSLGTQTYICNVNHKPSNTKVDKKVEPKSCD
chain 2: AIQMTQSPSSLSASVGDRVTITCQSQFWLSNYLAWYQQKPGKAPKLLIFDGDLPYERPSRFSGSGSHDEYTLTISSLQPEDFATYYCQQYREEPYTFGQGTKLEIKRTVAAPSVFIFPPSDEQLKSGTASVVCLLNNFYPREAKVQWKVDNALQSGNSQESVTEQDSKDSTYSLSSTLTLSKADYEKHKVYACEVTHQGLSSPVTKSFNRGEC
B8: the binding result with scFcRn is recorded as “no binding”.

B9: P1AG9391 full IgG (antibody)
chain 1: QVQLVESGGGLVQPGGSLRLSCAASGFKYDVYAMSWVRQAPGKGLEWVGEISPRGDSKYYNTKFIDRFTISRDNEKNTLYLQMNSLRAEDTAVYYCARDWEYFDNWGQGTLVTVSSASTKGPSVFPLAPSSKSTSGGTAALGCLVKDYFPEPVTVSWNSGALTSGVHTFPAVLQSSGLYSLSSVVTVPSSSLGTQTYICNVNHKPSNTKVDKKVEPKSCDKTHTCPPCPAPEAAGGPSVFLFPPKPKDTLMASRTPEVTCVVVDVSHEDPEVKFNWYVDGVEVHNAKTKPREEQYNSTYRVVSVLTVLAQDWLNGKEYKCKVSNKALGAPIEKTISKAKGQPREPQVYTLPPSRDELTKNQVSLTCLVKGFYPSDIAVEWESNGQPENNYKTTPPVLDSDGSFFLYSKLTVDKSRWQQGNVFSCSVMHEALHNAYTQKSLSLSP
chain 2: AIQMTQSPSSLSASVGDRVTITCQASYWLSNYLAWYQQKPGKAPKLLIFDGDIPWEIPSRFSGSGSHEEYTLTISSLQPEDFATYYCQQYRDTPYTFGQGTKLEIKRTVAAPSVFIFPPSDEQLKSGTASVVCLLNNFYPREAKVQWKVDNALQSGNSQESVTEQDSKDSTYSLSSTLTLSKADYEKHKVYACEVTHQGLSSPVTKSFNRGEC
On to B9, for which, in the test with scFcRn, the binding result is “no binding”.

B10: P1AG9376 full IgG (antibody)
chain 1: KVQLVESGGGLVQPGGSLRLSCAASGFKWEHYAMSWVRQAPGKGLEWVGSISPRGDHKYYNTKFIDRFTISRDNDKNTLYLQMNSLRAEDTAVYYCARDWDYFDRWGQGTLVTVSSASTKGPSVFPLAPSSKSTSGGTAALGCLVKDYFPEPVTVSWNSGALTSGVHTFPAVLQSSGLYSLSSVVTVPSSSLGTQTYICNVNHKPSNTKVDKKVEPKSCDKTHTCPPCPAPEAAGGPSVFLFPPKPKDTLMASRTPEVTCVVVDVSHEDPEVKFNWYVDGVEVHNAKTKPREEQYNSTYRVVSVLTVLAQDWLNGKEYKCKVSNKALGAPIEKTISKAKGQPREPQVYTLPPSRDELTKNQVSLTCLVKGFYPSDIAVEWESNGQPENNYKTTPPVLDSDGSFFLYSKLTVDKSRWQQGNVFSCSVMHEALHNAYTQKSLSLSP
chain 2: AIQMTQSPSSLSASVGDRVTITCQSQFWLSNYLAWYQQKPGKAPKLLIFDGDLPYERPSRFSGSGSHDEYTLTISSLQPEDFATYYCQQYREEPYTFGQGTKLEIKRTVAAPSVFIFPPSDEQLKSGTASVVCLLNNFYPREAKVQWKVDNALQSGNSQESVTEQDSKDSTYSLSSTLTLSKADYEKHKVYACEVTHQGLSSPVTKSFNRGEC
In the case of B10, the binding result with scFcRn is reported as “no binding”.

B11: P1AH1199 full Fab (antibody)
chain 1: QVQLVESGGGLVQPGGSLRLSCAASGFKYDVYAMSWVRQAPGKGLEWVGEISPRGDSKYYNTKFIDRFTISRDNEKNTLYLQMNSLRAEDTAVYYCARDWEYFDNWGQGTLVTVSSASTKGPSVFPLAPSSKSTSGGTAALGCLVKDYFPEPVTVSWNSGALTSGVHTFPAVLQSSGLYSLSSVVTVPSSSLGTQTYICNVNHKPSNTKVDKKVEPKSCD
chain 2: AIQMTQSPSSLSASVGDRVTITCQASYWLSNYLAWYQQKPGKAPKLLIFDGDIPWEIPSRFSGSGSHEEYTLTISSLQPEDFATYYCQQYRDTPYTFGQGTKLEIKRTVAAPSVFIFPPSDEQLKSGTASVVCLLNNFYPREAKVQWKVDNALQSGNSQESVTEQDSKDSTYSLSSTLTLSKADYEKHKVYACEVTHQGLSSPVTKSFNRGEC
For the molecule B11, the binding result in the test with scFcRn is “no binding”.

B12: P1AG9426 full IgG (antibody)
chain 1: QVQLVESGGGLVQPGGSLRLSCAASGFKYDVYAMSWVRQAPGKGLEWVGEISPRGDSKYYNTKFIDRFTISRDNEKNTLYLQMNSLRAEDTAVYYCARDWEYFDNWGQGTLVTVSSASTKGPSVFPLAPSSKSTSGGTAALGCLVKDYFPEPVTVSWNSGALTSGVHTFPAVLQSSGLYSLSSVVTVPSSSLGTQTYICNVNHKPSNTKVDKKVEPKSCDKTHTCPPCPAPEAAGGPSVFLFPPKPKDTLMASRTPEVTCVVVDVSHEDPEVKFNWYVDGVEVHNAKTKPREEQYNSTYRVVSVLTVLAQDWLNGKEYKCKVSNKALGAPIEKTISKAKGQPREPQVYTLPPSRDELTKNQVSLTCLVKGFYPSDIAVEWESNGQPENNYKTTPPVLDSDGSFFLYSKLTVDKSRWQQGNVFSCSVMHEALHNAYTQKSLSLSP
chain 2: AIQMTQSPSSLSASVGDRVTITCQASYWLSNYLAWYQQKPGKAPKLLIFDGDIPYEIPSRFSGSGSHEEYTLTISSLQPEDFATYYCQQYRETPYTFGQGTKLEIKRTVAAPSVFIFPPSDEQLKSGTASVVCLLNNFYPREAKVQWKVDNALQSGNSQESVTEQDSKDSTYSLSSTLTLSKADYEKHKVYACEVTHQGLSSPVTKSFNRGEC
With B12, in the test with scFcRn, the binding result is listed as “no binding”.

B13: P1AG9372 full IgG (antibody)
chain 1: EVQLVESGGGLVQPGGSLRLSCAASGFRFDIYAMSWVRQAPGKGLEWVGEISPDGRTKYYNTKFIDRFTISRDNEKNTLYLQMNSLRAEDTAVYYCARDWEYFDNWGQGTLVTVSSASTKGPSVFPLAPSSKSTSGGTAALGCLVKDYFPEPVTVSWNSGALTSGVHTFPAVLQSSGLYSLSSVVTVPSSSLGTQTYICNVNHKPSNTKVDKKVEPKSCDKTHTCPPCPAPEAAGGPSVFLFPPKPKDTLMASRTPEVTCVVVDVSHEDPEVKFNWYVDGVEVHNAKTKPREEQYNSTYRVVSVLTVLAQDWLNGKEYKCKVSNKALGAPIEKTISKAKGQPREPQVYTLPPSRDELTKNQVSLTCLVKGFYPSDIAVEWESNGQPENNYKTTPPVLDSDGSFFLYSKLTVDKSRWQQGNVFSCSVMHEALHNAYTQKSLSLSP
chain 2: AIQMTQSPSSLSASVGDRVTITCQSQFWLSNYLAWYQQKPGKAPKLLIFDGDLPYERPSRFSGSGSHDEYTLTISSLQPEDFATYYCQQYREEPYTFGQGTKLEIKRTVAAPSVFIFPPSDEQLKSGTASVVCLLNNFYPREAKVQWKVDNALQSGNSQESVTEQDSKDSTYSLSSTLTLSKADYEKHKVYACEVTHQGLSSPVTKSFNRGEC
As for B13, the binding result with scFcRn was “no binding”.
